Results published in US20220331457A1 (TELIX INTERNATIONAL, published 2022).
Positions count from the first letter of the chain named. Names may count otherwise.

Legend:
[1] = target: T1, human carbonic anhydrase IX (CAIX) (human, UniProt Q16790 38-414); assay: Biacore multicycle kinetic analysis (conclusion of Example 1)
Protocol: (§1) The purified antibodies were diluted to a concentration of 1 μg/ml in HBS-P+. […] Following capture, the surface was allowed to stabilise. Kinetic data was obtained using a flow rate of 30 μl/min to minimise any potential mass transfer effects. For the kinetics analysis, carbonic anhydrase IX (CAIX) was used. Multiple repeats of the blank (CAIX) and a repeat of a single concentration of the analyte were programmed into the kinetic run in order to check the stability of both the surface and analyte over the kinetic cycles. For kinetic analysis, a two-fold dilution range was selected from 50 nM to 0.078 nM CAIX. The association phase of CAIX was monitored for 280 seconds and the dissociation phase was monitored for 300 seconds. Regeneration of the Protein G surface was conducted using an injection of 10 mM glycine-HCL pH 1.5 followed by an injection of 10 mM glycine-HCL pH 1.5 containing 0.5% P20. The signal from the reference channel Fc1 was subtracted from that of Fc2, Fc3 and Fc4 to correct for differences in non-specific binding to a reference surface, and a global Rmax parameter was used in the 1-to-1 binding model. The relative KD was calculated by dividing the KD of the humanised variants by that of the chimeric antibody on the same chip.

[2] = target: T1, human carbonic anhydrase IX (CAIX); assay: Biacore multicycle analysis and competition ELISA (conclusion of Example 1)
[3] = target: T1, human carbonic anhydrase IX (CAIX); assay: SPR (Biacore T200), multicycle kinetics; purified CHO-expressed antibody captured on Protein G chip, CAIX as analyte
Protocol: as §1

[4] = target: T1, human carbonic anhydrase IX (CAIX); assay: SPR (Biacore T200), single cycle kinetics; antibody in HEK EBNA supernatant captured on Protein G chip, CAIX as analyte
Protocol: All single cycle kinetic experiments were run at 25° C. with HBS-P+ running buffer (pH 7.4) (GE Healthcare, Little Chalfont, UK). For direct comparison, all antibodies were captured on a Protein G chip (GE Healthcare, Uppsala, Sweden).
Antibodies were diluted in running buffer to a final concentration of 0.5 μg/ml, based on concentrations assessed by ELISA titre. At the start of each cycle, antibodies were loaded onto Fc2, Fc3 and Fc4 of the Protein G chip (GE Healthcare, Little Chalfont, UK). IgGs were captured at a flow rate of 10 μl/min to give an immobilisation level (RL) of ˜79 RU, the theoretical value to obtain an Rmax of ˜50 RU. The surface was then allowed to stabilise. Single cycle kinetic data was obtained with Carbonic Anhydrase IX (CAIX, Stratech, Newmarket, UK) as the analyte at a flow rate of 30 μl/min to minimise any potential mass transport limitations. […] The signal from the reference channel Fc1 (no antibody) was subtracted from that of Fc2, Fc3 and Fc4 to correct for differences in non-specific binding to a reference surface. […] The association phase for the four injections of increasing concentrations of CAIX was monitored for 200 seconds each time and a single dissociation phase was measured for 300 seconds following the last injection of CAIX. Regeneration of the Protein G surface was conducted using an injection of 10 mM glycine-HCL pH 1.5 followed by an injection of 10 mM glycine-HCL pH 1.5 containing 0.5% P20.

[5] = target: T1, human carbonic anhydrase IX (CAIX); assay: competition ELISA on coated CAIX; competitor: biotinylated chimeric Girentuximab IgG1
Protocol: CAIX was diluted in 1×PBS to 0.5 μg/ml and 100 μl/well was coated overnight at 4° C. on a 96-well ELISA plate. The following day, the plate was washed 3× with 1×PBS/0.05% Tween (PBST) and blocked with 200 μl of 2% BSA/PBS for one hour at room temperature.
After washing the plate 3× with PBS-T, 100 μl of chimeric/test antibody mix was added to the ELISA plate.
For colour development, the plate was washed 3× with PBS-T following which 100 μl of TMB substrate was added and incubated for approximately five minutes at room temperature. The reaction was stopped with 50 μl of 3.0 M hydrochloric acid and absorbance was read immediately using a Dynex plate reader at 450 nm.

[6] = target: T1, human carbonic anhydrase IX (CAIX); assay: SPR (Biacore T200), multicycle kinetics; purified antibody captured on Protein G chip, CAIX as analyte
Protocol: as §1

B1: Girentuximab humanised VH4/Vκ3 IgG1 (antibody)
heavy: not shown
light: DIQMTQSPSSLSASVGDRVTITCKASQNVVSAVAWYQQKPGQAPRLLIYSASNRYTGVPDRFSGSGSGTDFTLTISSLQAEDLADYFCQQYSNYPWTFGGGTKVEIKRTVAAPSVFIFPPSDEQLKSGTASVVCLLNNFYPREAKVQWKVDNALQSGNSQESVTEQDSKDSTYSLSSTLTLSKADYEKHKVYACEVTHQGLSSPVTKSFNRGEC
≤ 2 fold: binding relative to VH0/Vκ0 with the same IgG backbone [1] | binding relative to the IgG1 chimeric antibody [2] | relative KD (KD of the variant divided by KD of the chimeric antibody with the same IgG constant domain) [3] | relative KD (against the reference chimeric VH0/Vκ0 IgG1) [4] | relative IC50 (IC50 of the variant divided by IC50 of the Girentuximab chimeric IgG1 antibody on the same plate) [5] | relative KD (KD of the variant divided by KD of the chimeric antibody on the same chip) [6]

B2: Girentuximab humanised VH4/Vκ4 IgG1 (antibody)
heavy: not shown
light: B1 light with F87Y
≤ 2 fold: binding relative to VH0/Vκ0 with the same IgG backbone [1] | binding relative to the IgG1 chimeric antibody [2] | relative KD (KD of the variant divided by KD of the chimeric antibody with the same IgG constant domain) [3] | relative KD (against the reference chimeric VH0/Vκ0 IgG1) [4] | relative IC50 (IC50 of the variant divided by IC50 of the Girentuximab chimeric IgG1 antibody on the same plate) [5] | relative KD (KD of the variant divided by KD of the chimeric antibody on the same chip) [6]

B3: Girentuximab humanised VH3/Vκ3 IgG1 (antibody)
heavy: not shown
light: B1 light
≤ 2 fold: binding relative to the IgG1 chimeric antibody [2] | relative KD (against the reference chimeric VH0/Vκ0 IgG1) [4] | relative IC50 (IC50 of the variant divided by IC50 of the Girentuximab chimeric IgG1 antibody on the same plate) [5] | relative KD (KD of the variant divided by KD of the chimeric antibody on the same chip) [6]

B4: Girentuximab humanised VH3/Vκ4 IgG1 (antibody)
heavy: not shown
light: B1 light with F87Y
≤ 2 fold: binding relative to VH0/Vκ0 with the same IgG backbone [1] | binding relative to the IgG1 chimeric antibody [2] | relative KD (KD of the variant divided by KD of the chimeric antibody with the same IgG constant domain) [3] | relative KD (against the reference chimeric VH0/Vκ0 IgG1) [4] | relative IC50 (IC50 of the variant divided by IC50 of the Girentuximab chimeric IgG1 antibody on the same plate) [5] | relative KD (KD of the variant divided by KD of the chimeric antibody on the same chip) [6]

B5: Girentuximab humanised VH4/Vκ3 IgG4 (S228P, L235E, H310A, H435Q) (antibody)
heavy: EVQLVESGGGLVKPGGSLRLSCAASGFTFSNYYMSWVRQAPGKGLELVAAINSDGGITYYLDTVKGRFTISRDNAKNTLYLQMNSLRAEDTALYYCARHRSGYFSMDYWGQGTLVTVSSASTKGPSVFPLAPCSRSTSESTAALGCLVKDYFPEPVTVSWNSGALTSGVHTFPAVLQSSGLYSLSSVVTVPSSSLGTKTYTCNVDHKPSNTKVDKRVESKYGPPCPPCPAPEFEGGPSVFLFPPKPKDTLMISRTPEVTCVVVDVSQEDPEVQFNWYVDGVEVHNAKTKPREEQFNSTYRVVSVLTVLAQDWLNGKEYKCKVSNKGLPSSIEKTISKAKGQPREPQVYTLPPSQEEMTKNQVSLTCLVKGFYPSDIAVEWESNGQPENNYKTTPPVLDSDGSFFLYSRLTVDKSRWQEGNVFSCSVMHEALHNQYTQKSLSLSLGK
light: B1 light
≤ 2 fold: binding relative to VH0/Vκ0 with the same IgG backbone [1] | relative KD (KD of the variant divided by KD of the chimeric antibody with the same IgG constant domain) [3]

B6: Girentuximab humanised VH4/Vκ2 IgG1 (antibody)
heavy: not shown
light: B1 light with Q3V, S63T
≤ 2 fold: binding relative to the IgG1 chimeric antibody [2] | relative KD (against the reference chimeric VH0/Vκ0 IgG1) [4] | relative IC50 (IC50 of the variant divided by IC50 of the Girentuximab chimeric IgG1 antibody on the same plate) [5] | relative KD (KD of the variant divided by KD of the chimeric antibody on the same chip) [6]

B7: Girentuximab humanised VH3/Vκ2 IgG1 (antibody)
heavy: not shown
light: B1 light with Q3V, S63T
≤ 2 fold: binding relative to the IgG1 chimeric antibody [2] | relative KD (against the reference chimeric VH0/Vκ0 IgG1) [4] | relative IC50 (IC50 of the variant divided by IC50 of the Girentuximab chimeric IgG1 antibody on the same plate) [5] | relative KD (KD of the variant divided by KD of the chimeric antibody on the same chip) [6]

B8: Chimeric Girentuximab (VH0/Vκ0) IgG1 (H310A, H435Q) (antibody)
heavy: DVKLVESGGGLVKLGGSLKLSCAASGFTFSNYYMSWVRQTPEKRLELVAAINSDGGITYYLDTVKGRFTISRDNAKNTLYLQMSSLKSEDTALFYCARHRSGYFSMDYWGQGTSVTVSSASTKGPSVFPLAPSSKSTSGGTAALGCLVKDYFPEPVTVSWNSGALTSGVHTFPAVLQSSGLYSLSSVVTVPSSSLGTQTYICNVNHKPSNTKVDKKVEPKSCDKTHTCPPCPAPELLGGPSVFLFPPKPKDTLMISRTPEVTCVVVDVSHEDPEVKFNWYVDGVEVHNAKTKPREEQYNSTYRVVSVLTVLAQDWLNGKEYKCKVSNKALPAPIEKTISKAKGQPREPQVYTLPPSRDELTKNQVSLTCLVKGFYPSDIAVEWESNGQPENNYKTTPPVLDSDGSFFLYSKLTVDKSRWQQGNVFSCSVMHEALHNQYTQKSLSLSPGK
light: DIVMTQSQRFMSTTVGDRVSITCKASQNVVSAVAWYQQKPGQSPKLLIYSASNRYTGVPDRFTGSGSGTDFTLTISNMQSEDLADFFCQQYSNYPWTFGGGTKLEIKRTVAAPSVFIFPPSDEQLKSGTASVVCLLNNFYPREAKVQWKVDNALQSGNSQESVTEQDSKDSTYSLSSTLTLSKADYEKHKVYACEVTHQGLSSPVTKSFNRGEC
notes: Chimeric antibody on the FcRn-null IgG1 backbone; also called chimeric IgG1 (H310A, H435Q)
≤ 2 fold: relative IC50 (IC50 of the variant divided by IC50 of the Girentuximab chimeric IgG1 antibody on the same plate) [5] | relative KD (KD of the variant divided by KD of the chimeric antibody on the same chip) [6]

B9: Chimeric Girentuximab (VH0/Vκ0) IgG4 (S228P, L235E, H310A, H435Q) (antibody)
heavy: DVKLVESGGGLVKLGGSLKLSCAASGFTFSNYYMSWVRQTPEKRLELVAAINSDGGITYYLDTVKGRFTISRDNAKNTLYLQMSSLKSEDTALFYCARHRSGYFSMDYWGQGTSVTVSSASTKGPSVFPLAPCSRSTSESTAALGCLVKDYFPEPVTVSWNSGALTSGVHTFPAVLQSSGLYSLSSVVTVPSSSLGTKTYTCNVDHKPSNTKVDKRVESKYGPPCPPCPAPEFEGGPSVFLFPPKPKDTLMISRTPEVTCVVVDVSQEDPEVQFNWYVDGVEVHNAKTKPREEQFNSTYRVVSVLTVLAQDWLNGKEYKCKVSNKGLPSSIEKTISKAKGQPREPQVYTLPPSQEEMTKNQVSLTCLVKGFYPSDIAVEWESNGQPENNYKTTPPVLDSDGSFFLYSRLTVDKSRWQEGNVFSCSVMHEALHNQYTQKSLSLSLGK
light: B8 light
notes: Chimeric antibody on the FcRn- and FcRγ-null IgG4 backbone; also called chimeric IgG4 (S228P, L235E, H310A, H435Q)
≤ 2 fold: relative IC50 (IC50 of the variant divided by IC50 of the Girentuximab chimeric IgG1 antibody on the same plate) [5] | relative KD (KD of the variant divided by KD of the chimeric antibody on the same chip) [6]
